Positions count from the first letter of the chain named. One block for each binder: values may come before it.
Assays:
human pro-myostatin [1] = target: T1, human pro-myostatin (human, UniProt O14793 24-375, biotinylated (in the SPR assay)); test: Ab KD, summary Table 11; method and antigen not stated there
T1 construct: Disulfide-linked homodimer; also called proGDF8 (human)

cyno pro-myostatin = target: T2, cyno pro-myostatin (cynomolgus monkey, Biotinylated for capture in the SPR assay (site not stated). The native form is a disulfide-linked homodimer, partly furin-cleaved; one chain is given.); test: SPR Biacore 8K, biotin-antigen captured
T2 construct: also called proGDF8 (cynomolgus); cynomolgus monkey pro-myostatin

human pro-myostatin [2] = target: T1, human pro-myostatin; test: SPR Biacore 8K, biotin-antigen captured
murine pro-myostatin = target: T3, murine pro-myostatin (mouse, UniProt O08689 25-376, biotinylated (in the SPR assay)); test: SPR Biacore 8K, biotin-antigen captured
T3 construct: also called proGDF8 (mouse); mouse pro-myostatin

[3] = target: T4, recombinant human latent myostatin (human, UniProt O14793 24-375, biotinylated (in the Octet pH assay only)); test: cell-based or functional assay
[4] = target: T4, recombinant human latent myostatin; test: cell-based or functional assay; remark: listed apart in the source
human pro-myostatin [5] = target: T1, human pro-myostatin; test: Fab KD, summary Table 11; method and antigen not stated there
mouse GDF-11 = mouse GDF-11 (mouse, UniProt Q9Z1W4 297-405, limits assumed); test: plate binding assay, OD 450 nm, one antibody concentration that is not given, on Mu-GDF-11 (method not described in the text)
human GDF-11 = human GDF-11 (human, UniProt O95390 299-407, limits assumed); test: plate binding assay, OD 450 nm, one antibody concentration that is not given, on Hu-GDF-11 (method not described in the text)
human pro-myostatin [6] = target: T1, human pro-myostatin; test: cell-based or functional assay

Chain of human GDF-11 (O95390 299-407 limits assumed): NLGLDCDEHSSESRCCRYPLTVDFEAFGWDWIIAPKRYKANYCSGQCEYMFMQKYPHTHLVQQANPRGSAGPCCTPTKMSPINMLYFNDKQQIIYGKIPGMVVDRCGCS
Chain of mouse GDF-11 (Q9Z1W4 297-405 limits assumed): as the sequence (O95390 299-407 limits assumed) above

Kd (human pro-myostatin [1]): 0.04 nM
Kd (cyno pro-myostatin): 0.0369 nM
koff (cyno pro-myostatin): 0.000103 s⁻¹
kon (cyno pro-myostatin): 2.8e+06 M⁻¹ s⁻¹
Kd (human pro-myostatin [2]): 0.04 nM
koff (human pro-myostatin [2]): 0.000112 s⁻¹
kon (human pro-myostatin [2]): 2.79e+06 M⁻¹ s⁻¹
Kd (murine pro-myostatin): 0.0531 nM
koff (murine pro-myostatin): 0.000156 s⁻¹
kon (murine pro-myostatin): 2.93e+06 M⁻¹ s⁻¹
IC50 (nM) Latent + mTLL2 [3]: 0.139 nM
mTLL2 IC50 [4]: 0.139 nM
B1: Ab141 (antibody, human IgG4 S228P, kappa, V domains shown)
VH: EVQLVESGGGLVQPGGSLRLSCAASGFTFSSYGMSWVRQAPGKGLELVASFTGSGGAYYPDSVKGRFTISRDNAKNSLYLQMNSLRAEDTAVYYCARDLLIRFLEWSHYYGMDVWGQGTTVTVSS
VL: DIVMTQSPLSLPVTPGEPASISCRSSQSLLHSSGHNFLHWYLQKPGQSPQLLIYEVSNRVSGVPDRFSGSGSGTDFTLKISRVEAEDVGVYYCMQQTQYPGTFGGGTKVEIKR

Kd (human pro-myostatin [5]): 21.9 nM
B2: Ab105 Fab (Fab, V domains shown)
VH: B1 VH with F27S, T28A, F51I, T52G, S54T, G56A, A57T, I101V, S107G
VL: DIVMTQSPLSLPVTPGEPASISCRSSQSLLHSSGYNFLHWYLQKPGQSPQLLIYAASSRAPGIPDRFSGSGSGTDFTLKISRVEAEDVGVYYCMHGGQGPTFGGGTKVEIK
notes: Fab of Ab105

Kd (human pro-myostatin [5]): 39.5 nM
B3: Fab fragment of Ab109 (Fab, V domains shown)
VH: B1 VH with A57T
VL: DIVMTQSPLSLPVTPGEPASISCRSSQSLLHSSGHNFLHWYLQKPGQSPQLLIYEVSNRVSGVPDRFSGSGSGTDFTLKISRVEAEDVGVYYCMQQTQYPPTFGGGTKVEIK
notes: Fab of Ab109 (molecular weight 49.25 kDa); also called Ab109 Fab

Kd (human pro-myostatin [5]): 61.4 nM
B4: Ab132 Fab (Fab, V domains shown)
VH: B1 VH with A57T
VL: B3 VL with M94Q
notes: Fab of Ab132

Kd (human pro-myostatin [5]): 17.4 nM
B5: Ab131 Fab (Fab, V domains shown)
VH: B1 VH with F27S, T28A, F51I, T52G, S54T, G56A, A57T, I101V, S107G
VL: B2 VL with M94Q
notes: Fab of Ab131

Kd (human pro-myostatin [5]): 23 nM
B6: Ab133 Fab (Fab, V domains shown)
VH: B1 VH
VL: B3 VL with M94Q, P101G
notes: Fab of Ab133

Kd (human pro-myostatin [5]): 19 nM
B7: Ab141 Fab (Fab, V domains shown)
VH: B1 VH
VL: B3 VL with P101G
notes: Fab of Ab141

Kd (human pro-myostatin [5]): 44.4 nM
B8: Ab102 Fab (Fab, V domains shown)
VH: EVQLVESGGGLVQPGGSLRLSCAASGFTFTSYGMSWVRQAPGKGLELVASITGSGGETYYPDSVKGRFTISRDNAKNSLYLQMNSLRAEDTAVYYCARDLLVRFLEWSHYYGMDVWGQGTTVTVSS
VL: B3 VL with V56T, V60A, S61P, V63I, Q96A, Y99F, P101R, T102P

Kd (human pro-myostatin [5]): 53.8 nM
B9: Ab130 Fab (Fab, V domains shown)
VH: B8 VH
VL: B3 VL with V56T, V60A, S61P, V63I, M94Q, Q96A, Y99F, P101R, T102P
notes: Fab of Ab130

binding result (mouse GDF-11): no binding
binding result (human GDF-11): no binding
Kd (human pro-myostatin [1]): 3.56 nM
Kd (cyno pro-myostatin): 0.601 nM
koff (cyno pro-myostatin): 0.000124 s⁻¹
kon (cyno pro-myostatin): 207000 M⁻¹ s⁻¹
Kd (human pro-myostatin [2]): 0.561 nM
koff (human pro-myostatin [2]): 0.000122 s⁻¹
kon (human pro-myostatin [2]): 217000 M⁻¹ s⁻¹
Kd (murine pro-myostatin): 0.748 nM
koff (murine pro-myostatin): 0.000188 s⁻¹
kon (murine pro-myostatin): 251000 M⁻¹ s⁻¹
IC50 (nM) Latent + mTLL2 [3]: 9.22 nM
IC50 (nM) Pro + Furin (human pro-myostatin [6]): 1.08 nM
mTLL2 IC50 [4]: 9.22 nM
B10: Ab112 (antibody, human IgG4 S228P, kappa, V domains shown)
VH: QVQLVQSGAEVKKPGASVKVSCKVSGGTFGIYAIHWVRQAPGKGLEWMGGTIPVFGTAIYAQKFQGRVTMTEDTSTDTAYMELSSLKSEDTAVYYCASLTGIAAAGTHPARGGMDVWGQGTTVTVSS
VL: DIQMTQSPSSVSASVGDRVTITCRASPSISSYLAWYQQKPGKAPKLLIYAASRLQSGVPSRFSGSGSGTDFTLTISSLQPEDFANYYCQEYLSFPLTFGGGTKVEIKR

Kd (human pro-myostatin [5]): 6.19 nM
B11: Ab112 Fab (Fab, V domains shown)
VH: B10 VH
VL: DIQMTQSPSSVSASVGDRVTITCRASPSISSYLAWYQQKPGKAPKLLIYAASRLQSGVPSRFSGSGSGTDFTLTISSLQPEDFANYYCQEYLSFPLTFGGGTKVEIK
notes: Fab of Ab112; also called Ab112 Fab fragment

binding result (mouse GDF-11): no binding
binding result (human GDF-11): no binding
Kd (cyno pro-myostatin): 3.13 nM
koff (cyno pro-myostatin): 0.00139 s⁻¹
kon (cyno pro-myostatin): 443000 M⁻¹ s⁻¹
Kd (human pro-myostatin [2]): 3.04 nM
koff (human pro-myostatin [2]): 0.00123 s⁻¹
kon (human pro-myostatin [2]): 406000 M⁻¹ s⁻¹
Kd (murine pro-myostatin): 3.05 nM
koff (murine pro-myostatin): 0.00137 s⁻¹
kon (murine pro-myostatin): 450000 M⁻¹ s⁻¹
IC50 (nM) Latent + mTLL2 [3]: 2.94 nM
IC50 (nM) Pro + Furin (human pro-myostatin [6]): 6.01 nM
B12: Ab115 (antibody, human IgG4 S228P, kappa, V domains shown)
VH: QVQLVQSGAEVKKPGASVKVSCKVSGYAFTNYNIHWVRQAPGKGLEWMGGINPRTGGTIYAQKFQGRVTMTEDTSTDTAYMELSSLKSEDTAVYYCAKDIYTGVAVAGSGMDYWGQGTLVTVSS
VL: DIQMTQSPSSVSASVGDRVTITCRASQGISTHLAWYQQKPGKAPKLLIYGASNLESGVPSRFSGSGSGTDFTLTISSLQPEDFANYYCQQANSFPWTFGGGTKVEIKR

binding result (mouse GDF-11): no binding
binding result (human GDF-11): no binding
Kd (cyno pro-myostatin): 0.814 nM
koff (cyno pro-myostatin): 0.000736 s⁻¹
kon (cyno pro-myostatin): 905000 M⁻¹ s⁻¹
Kd (human pro-myostatin [2]): 0.365 nM
koff (human pro-myostatin [2]): 0.000463 s⁻¹
kon (human pro-myostatin [2]): 1.27e+06 M⁻¹ s⁻¹
Kd (murine pro-myostatin): 0.716 nM
koff (murine pro-myostatin): 0.000655 s⁻¹
kon (murine pro-myostatin): 914000 M⁻¹ s⁻¹
IC50 (nM) Latent + mTLL2 [3]: 1.03 nM
IC50 (nM) Pro + Furin (human pro-myostatin [6]): 0.774 nM
B13: Ab128 (antibody, human IgG4 S228P, kappa, V domains shown)
VH: EVQLVESGGGLVQPGGSLRLSCTASGFTLSSYSMDWVRQAPGKGLEWVSYITGSGDTTYYADSVKGRFTISRDNAKNTLYLQMNSLRAEDTAVYYCARGFGWISGWAEDYFDYWGQGTLVTVSS
VL: DIQMTQSPSSLSASVGDRVTITCQASQSVYSYLNWYQQKPGKAPKLLIYGASRLEGGVPSRFSGSGSGTDFTFTISSLQPEDIATYYCQQHSTDQRTFGGGTKVEIKR

binding result (mouse GDF-11): no binding
binding result (human GDF-11): no binding
Kd (human pro-myostatin [1]): 0.683 nM
Kd (cyno pro-myostatin): 0.339 nM
koff (cyno pro-myostatin): 0.000539 s⁻¹
kon (cyno pro-myostatin): 1.59e+06 M⁻¹ s⁻¹
Kd (human pro-myostatin [2]): 0.394 nM
koff (human pro-myostatin [2]): 0.000543 s⁻¹
kon (human pro-myostatin [2]): 1.38e+06 M⁻¹ s⁻¹
Kd (murine pro-myostatin): 0.618 nM
koff (murine pro-myostatin): 0.000772 s⁻¹
kon (murine pro-myostatin): 1.25e+06 M⁻¹ s⁻¹
IC50 (nM) Latent + mTLL2 [3]: 0.139 nM
IC50 (nM) Pro + Furin (human pro-myostatin [6]): 0.184 nM
mTLL2 IC50 [4]: 0.139 nM
B14: Ab123 (antibody, human IgG4 S228P, kappa, V domains shown)
VH: EVQLVESGGGLVQPGGSLRLSCAASGFTFSKYDMSWVRQAPGKGLELVASISSSGGTRYYPDSVKGRFTISRDNAKNSLYLQMNSLRAEDTAVYYCAKDLWVASPGYGMDVWGQGTTVTVSS
VL: DIVMTQSPLSLPVTPGEPASISCRSSQSLLHSSGHNYLHWYLQKPGQSPQLLIYLGSIRAPGVPDRFSGSGSGTDFTLKISRVEAEDVGVYYCMQALLNPPTFGGGTKVEIKR

Kd (human pro-myostatin [5]): 5.51 nM
B15: Ab123 Fab (Fab, V domains shown)
VH: B14 VH
VL: B14 VL
notes: Fab of Ab123; also called Ab123 Fab fragment

binding result (mouse GDF-11): no binding
binding result (human GDF-11): no binding
Kd (cyno pro-myostatin): 2.6 nM
koff (cyno pro-myostatin): 0.00908 s⁻¹
kon (cyno pro-myostatin): 3.49e+06 M⁻¹ s⁻¹
Kd (human pro-myostatin [2]): 1.74 nM
koff (human pro-myostatin [2]): 0.00735 s⁻¹
kon (human pro-myostatin [2]): 4.23e+06 M⁻¹ s⁻¹
Kd (murine pro-myostatin): 6.29 nM
koff (murine pro-myostatin): 0.0208 s⁻¹
kon (murine pro-myostatin): 3.31e+06 M⁻¹ s⁻¹
IC50 (nM) Latent + mTLL2 [3]: 3.3 nM
IC50 (nM) Pro + Furin (human pro-myostatin [6]): 2.8 nM
B16: Ab114 (antibody, human IgG4 S228P, kappa, V domains shown)
VH: QVQLVQSGAEVKKPGASVKVSCKVSGGTFRSYTIHWVRQAPGKGLEWMGGMNPSSGHTIYAQKFQGRVTMTEDTSTDTAYMELSSLKSEDTAVYYCARGLDYGEGYYYYGMDVWGQGTTVTVSS
VL: DIQMTQSPSSVSASVGDRVTITCRASQGISESLAWYQQKPGKAPKLLIYSASSLESGVPSRFSGSGSGTDFTLTISSLQPEDFANYYCQQGYSSPPYTFGGGTKVEIKR

— patent publication US20260209325A1 (SCHOLAR ROCK, published 2026)
